The source of these data is patent US20120316071A1 (published 2012).

The target of assay [1] is T1, Recombinant Human DLL4 (R&D Systems Cat#1506-D4/CF) (human, UniProt Q9NR61 27-524).
T1 construct: Bought from R&D Systems; also called rHuman DLL4; delta-like protein 4
The assay can be described thus: MSD multispot ECL, antigen spotted on plate, Fab 22 nM; blank spot 289.

In assay [2] the target is T2, rHuman ErbB2/Fc Chimera, CF (R&D Systems Cat#1129-ER) (human, UniProt P04626 23-652).
T2 construct: Bought from R&D Systems; also called human epidermal growth factor 2 receptor (ErbB2); not shown: Fc of the bought chimera
The description is as above.

The target of assay [3] is T3, rHuman EGF R/Fc Chimera, CF (R&D Systems Cat#344-ER) (human, UniProt P00533 25-645).
T3 construct: Bought from R&D Systems; also called epidermal growth factor receptor (EGF R); not shown: Fc of the bought chimera
The assay is described as above.

Assay [4] addresses T4, rHuman HGF R/c-MET/Fc Chimera, CF (R&D Systems Cat#358-MT/CF) (human, UniProt P08581 25-932).
T4 construct: Bought from R&D Systems; also called HGF R/Fc; hepatocyte growth factor receptor (HGF R/c-Met); not shown: Fc of the bought chimera
The assay is described as above.

The target in assay [5] is T5, rHuman Notch-1/Fc Chimera, CF (R&D Systems Cat#3647-TK) (human, UniProt P46531 19-526).
T5 construct: Bought from R&D Systems; not shown: Fc of the bought chimera
The assay is described as above.

The target in assay [6] is T6, rHuman CD44/Fc Chimera, CF (R&D Systems Cat#3660-CD) (human, UniProt P16070 21-220).
T6 construct: Bought from R&D Systems; not shown: Fc of the bought chimera
Described as above.

Assay [7] deals with T7, rHuman IGF-1 sR, (IGF-1 sR), CF (R&D Systems Cat#391-GR) (human, UniProt P08069 31-932).
T7 construct: Bought from R&D Systems and called a soluble receptor; also called insulin-like growth factor-1 soluble receptor
The description is as above.

For assay [8], the target named is T8, rHuman P-Cadherin/Fc Chimera, CF (R&D Systems Cat#861-PC) (human, UniProt P22223 108-654).
T8 construct: Bought from R&D Systems; not shown: Fc of the bought chimera
Described as above.

Assay [9] addresses T9, rHuman Erythropoietin R/Fc Chimera, CF (R&D Systems Cat#963-ER) (human, UniProt P19235 25-250).
T9 construct: Bought from R&D Systems; also called EPO R/Fc; Epo R/Fc chimera; not shown: Fc of the bought chimera
T9 sequence (looked up): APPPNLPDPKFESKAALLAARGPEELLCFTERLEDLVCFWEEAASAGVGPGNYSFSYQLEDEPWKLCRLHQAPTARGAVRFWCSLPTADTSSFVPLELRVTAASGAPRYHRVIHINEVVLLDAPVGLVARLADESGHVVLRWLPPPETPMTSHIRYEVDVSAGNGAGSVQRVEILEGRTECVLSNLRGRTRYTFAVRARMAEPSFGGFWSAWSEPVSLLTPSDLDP
The description is as above.

Assay [10] deals with T10, rHuman Erythropoietin R/Fc Chimera, CF (R&D Systems Cat#963-ER) (human, UniProt P19235 25-250).
T10 construct: Bought recombinant protein; also called EPO R; EPO R/Fc; Fc part of the bought chimera not given
T10 sequence (looked up): T9 sequence (looked up)
The assay can be described thus: ECL multispot (MSD) assay, spotted antigen; Fab 2.00 (head prints uM).

Assay [11] concerns the target T11, Recombinant Human DLL4 (R&D Systems Cat#1506-D4/CF) (human, UniProt Q9NR61 27-524).
T11 construct: Bought recombinant protein; also called delta-like protein 4
The description is as above.

The target in assay [12] is T12, rHuman EGF R/Fc Chimera, CF (R&D Systems Cat#344-ER) (human, UniProt P00533 25-645).
T12 construct: Bought recombinant protein; Fc part of the bought chimera not given
The description is as above.

Assay [13] addresses T13, rHuman HGF R/c-MET/Fc Chimera, CF (R&D Systems Cat#358-MT/CF) (human, UniProt P08581 25-932).
T13 construct: Bought recombinant protein; also called HGF R/Fc; Fc part of the bought chimera not given
Described as above.

Assay [14] concerns the target T14, rHuman Notch-1/Fc Chimera, CF (R&D Systems Cat#3647-TK) (human, UniProt P46531 19-526).
T14 construct: Bought recombinant protein; Fc part of the bought chimera not given
The assay is described as above.

In assay [15] the target is T15, rHuman IGF-1 sR, CF (R&D Systems Cat#391-GR) (human, UniProt P08069 31-932).
T15 construct: Bought soluble receptor; The column head prints only 'IGF-1'; also called insulin-like growth factor-1 soluble receptor
The assay is described as above.

In assay [16] the target is T16, rHuman IGF-1 sR, CF (R&D Systems Cat#391-GR) (human, UniProt P08069 31-932).
T16 construct: Bought soluble receptor; The column head prints only 'IGF-1'; also called insulin-like growth factor-1 soluble receptor
The assay can be described thus: ECL Multispot (MSD) assay, antigen spotted on plate, 10 nM Fab; blank spot of this row 472.

Assay [17] deals with T17, rHuman P-Cadherin/Fc Chimera, CF (R&D Systems Cat#861-PC) (human, UniProt P22223 108-654).
T17 construct: Bought reagent; Fc part of the bought chimera not given
The assay is described as above.

Assay [18] has as its target T18, rHuman HGF R/c-MET/Fc Chimera, CF (R&D Systems Cat#358-MT/CF) (human, UniProt P08581 25-932).
T18 construct: Bought reagent; also called HGF R/Fc; hepatocyte growth factor receptor; Fc part of the bought chimera not given
The description is as above.

B1: Fab VH1-46_IGHD3-10*01_IGHJ4*01 & B3_IGKJ1*01 (Fab, V domains shown)
VH: QVQLVQSGAEVKKPGASVKVSCKASGYTFTSYYMHWVRQAPGQGLEWMGIINPSGGSTSYAQKFQGRVTMTRDTSTSTVYMELSSLRSEDTAVYYCAREYYYGSGSYYNDYFDYWGQGTLVTVSS
VL: not shown
notes: Tested as a Fab made in E. coli; VH was cloned into Plasmid A (CH1 constant region, His6 and Flag tags); The kappa VL was cloned into Plasmid C (kappa CL)
In the case of B1, the ECL signal in assay [1] is 342; in [2], 363; in assay [3], 312; in [4], 203; in assay [5] it was 389; in assay [6], 317. In addition, the ECL signal is 347 in [7], 215 in assay [8] and 2240 in assay [9].

B2: Fab VH5-51_IGHD5-18*01>3_IGHJ4*01 G100K/G104T & V3-4_IGLJ1*01 (Fab, V domains shown)
VH: EVQLVQSGAEVKKPGESLKISCKGSGYSFTSYWIGWVRQMPGKGLEWMGIIYPGDSDTRYSPSFQGQVTISADKSISTAYLQWSSLKASDTAMYYCARRKYSYTYDYFDYWGQGTLVTVSS
VL: QTVVTQEPSFSVSPGGTVTLTCGLSSGSVSTSYYPSWYQQTPGQAPRTLIYSTNTRSSGVPDRFSGSILGNKAALTITGAQADDESDYYCVLYMGSGISYVFGTGTKVTVL
notes: Tested as a Fab; The constant parts are the same as for the parent Fab (CH1 with His6/Flag tags, lambda CL); also called KT double mutant; H:KT
In the case of B2, the ECL signal/noise ratio came out at 4.1 in assay [10]; 72.7 in assay [11]; 3.8 in assay [12]; 6 in assay [13]; 1.9 in assay [14]; 3.7 in assay [15].

B3: Fab VH1-46_IGHD6-6*01_IGHJ1*01 S102A/S103P/S104F (APF) & L6_IGKJ1*01 (Fab, V domains shown)
VH: QVQLVQSGAEVKKPGASVKVSCKASGYTFTSYYMHWVRQAPGQGLEWMGIINPSGGSTSYAQKFQGRVTMTRDTSTSTVYMELSSLRSEDTAVYYCAREEYAPFSAEYFQHWGQGTLVTVSS
VL: not shown
notes: Tested as a Fab made in E. coli; also called H:APF & L:wt; APF triple mutant
With B3, the figures for the ECL signal in assay [16], in [17] and in assay [18] were 434, 433 and 426, respectively.
